Source: patent US20250002586A1 (CDR LIFE, published 2025)
Like-named read-outs stand apart in the source and are kept apart here.

Key:
[1] = molecular target: T1, MAGE-A4 peptide … presented by HLA-A*02:01 on cells (human); assay: cell-based or functional assay
[2] = molecular target: T2, HLA-A*02:01 in complex with the MAGE-A4 peptide … (human); assay: SPR (Biacore T200), HLA-A*02:01/MAGE-A4 peptide complex on streptavidin chip, 1:1 Langmuir fit
T2 construct: Recombinant complex as immobilised (500 RU) for SPR; also called HLA-A2/MAGE-A4 complex; pMHC-MAGE-A4 antigen
Experimental: Affinity characterization of HLA-A2/MAGE-A4×CD3 bispecific antibodies was performed by surface plasmon resonance (SPR). All experiments were conducted using a Biacore™ T200 Device (Cytiva). To determine the kinetic parameters of the binding of the bispecific antibodies to the HLA-A2/MAGE-A4 complex, a streptavidin chip (SAHC30M, XanTec) was coated according to the manufacturer's instructions with 500 RU HLA-A*02:01 in complex with the MAGE-A4 peptide. The resulting affinities presented herein correspond to the measurements performed with the respective monovalent antigen binding proteins. […] Uncoated channels were used for referencing. Data fitting was performed using a 1:1 Langmuir model.

[3] = molecular target: T1, MAGE-A4 peptide … presented by …; assay: cell-based or functional assay; remark: listed apart in the source
[4] = molecular target: CD3 heterodimer (Acro Biosystems) (UniProt P07766 23-126); assay: SPR (Biacore T200), CD3 heterodimer on HC30M chip, 1:1 Langmuir fit
Chain of CD3 heterodimer (Acro Biosystems) (P07766 23-126, one chain of several): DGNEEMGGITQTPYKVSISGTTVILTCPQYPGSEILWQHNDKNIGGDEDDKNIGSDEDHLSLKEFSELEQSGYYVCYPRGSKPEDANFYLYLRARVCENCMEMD

| Binder | U20S cell killing, IC50 [1] [nM] | Kd [2] [nM] | U20S cell killing, IC50 [3] [nM] | Kd [4] [nM] |
| --- | --- | --- | --- | --- |
| CDR-1 (bispecific antibody, no Fc; also called Format #1; monovalent Fab-VHH HLA-A2/MAGE-A4 x CD3 bispecific) heavy: EVQLVESGGGSVQPGGSLRLSCAASGFTFSTYAMNWVRQAPGKGLEWVGRIRSKANNYATYYADSVKGRFTISRDDSKNTLYLQMNSLRAEDTATYYCVRHGNFGDSYVSWFAYWGQGTTVTVSSASTKGPSVFPLAPSSKSTSGGTAALGCLVKDYFPEPVTVSWNSGALTSGVHTFPAVLQSSGLYSLSSVVTVPSSSLGTQTYICNVNHKPSNTKVDKRVEPKSC light: EVQLVESGGGLAQAGGSLRVSCVASGRPFTKYAWGWFRQAPGKAREFVATITWDGGKTDYADSVKGRFTISKDSAENSIYLQMNSLKPEDTAVYYCAADRNYCVGHRCYVRPDDYDYWGQGTQVTVSSGGGGSAVVTQEPSLTVSPGGTVTLTCGSSTGAVTTSNYANWVQQKPGKSPRGLIGGTNKRAPGVPARFSGSLLGGKAALTISGAQPEDEADYYCALWYSNHWVFGGGTKLTVLGTVAAPSVFIFPPSDEQLKSGTASVVCLLNNFYPREAKVQWKVDNALQSGNSQESVTEQDSKDSTYSLSSTLTLSKADYEKHKVYACEVTHQGLSSPVTKSFNRGEC | 0.1 | 1.5 | – | – |
| CDR-2 (bispecific antibody, no Fc; also called Format #2; monovalent Fab-VHH HLA-A2/MAGE-A4 x CD3 bispecific) heavy: EVQLVESGGGSVQPGGSLRLSCAASGFTFSTYAMNWVRQAPGKGLEWVGRIRSKANNYATYYADSVKGRFTISRDDSKNTLYLQMNSLRAEDTATYYCVRHGNFGDSYVSWFAYWGQGTTVTVSSASTKGPSVFPLAPSSKSTSGGTAALGCLVKDYFPEPVTVSWNSGALTSGVHTFPAVLQSSGLYSLSSVVTVPSSSLGTQTYICNVNHKPSNTKVDKRVEPKSC light: AVVTQEPSLTVSPGGTVTLTCGSSTGAVTTSNYANWVQQKPGKSPRGLIGGTNKRAPGVPARFSGSLLGGKAALTISGAQPEDEADYYCALWYSNHWVFGGGTKLTVLGTVAAPSVFIFPPSDEQLKSGTASVVCLLNNFYPREAKVQWKVDNALQSGNSQESVTEQDSKDSTYSLSSTLTLSKADYEKHKVYACEVTHQGLSSPVTKSFNRGECGGGGSEVQLVESGGGLAQAGGSLRVSCVASGRPFTKYAWGWFRQAPGKAREFVATITWDGGKTDYADSVKGRFTISKDSAENSIYLQMNSLKPEDTAVYYCAADRNYCVGHRCYVRPDDYDYWGQGTQVTVSS | 0.18 | 2.6 | – | – |
| CDR-5 (bispecific antibody) heavy: EVQLVESGGGSVQPGGSLRLSCAASGFTFSTYAMNWVRQAPGKGLEWVGRIRSKANNYATYYADSVKGRFTISRDDSKNTLYLQMNSLRAEDTATYYCVRHGNFGDSYVSWFAYWGQGTTVTVSSASTKGPSVFPLAPSSKSTSGGTAALGCLVKDYFPEPVTVSWNSGALTSGVHTFPAVLQSSGLYSLSSVVTVPSSSLGTQTYICNVNHKPSNTKVDKRVEPKSCGGGGSEVQLVESGGGLAQAGGSLRVSCVASGRPFTKYAWGWFRQAPGKAREFVATITWDGGKTDYADSVKGRFTISKDSAENSIYLQMNSLKPEDTAVYYCAADRNYCVGHRCYVRPDDYDYWGQGTQVTVSS light: EVQLVESGGGLAQAGGSLRVSCVASGRPFTKYAWGWFRQAPGKAREFVATITWDGGKTDYADSVKGRFTISKDSAENSIYLQMNSLKPEDTAVYYCAADRNYCVGHRCYVRPDDYDYWGQGTQVTVSSGGGGSAVVTQEPSLTVSPGGTVTLTCGSSTGAVTTSNYANWVQQKPGKSPRGLIGGTNKRAPGVPARFSGSLLGGKAALTISGAQPEDEADYYCALWYSNHWVFGGGTKLTVLGTVAAPSVFIFPPSDEQLKSGTASVVCLLNNFYPREAKVQWKVDNALQSGNSQESVTEQDSKDSTYSLSSTLTLSKADYEKHKVYACEVTHQGLSSPVTKSFNRGEC | – | – | 0.01 | – |
| CDR-10 (bispecific antibody, no Fc) heavy: EVQLVESGGGLVQPGGSLRLSCAASGFTFSTYAMNWVRQAPGKGLEWVGRIRSKYNNYATYYADSVKGRFTISRDDSKNTLYLQMNSLRAEDTAVYYCVRHGNFGDSYVSWFAYWGQGTLVTVSSASTKGPSVFPLAPSSKSTSGGTAALGCLVKDYFPEPVTVSWNSGALTSGVHTFPAVLQSSGLYSLSSVVTVPSSSLGTQTYICNVNHKPSNTKVDKRVEPKSCGGGGSEVQLVESGGGLVQPGGSLRLSCVASGRPFTKYAWGWFRQAPGKAREFVATITWDGGKTDYADSVKGRFTISKDSAKNSIYLQMNSLRAEDTAVYYCAADRNYCVGHRCYVRPDDYDYWGQGTLVTVSS light: QAVVTQEPSLTVSPGGTVTLTCGSSTGAVTTSNYANWVQQKPGKSPRGLIGGTNKRAPGVPARFSGSLLGGKAALTISGAQPEDEADYYCALWYSNHWVFGGGTKLTVLGTVAAPSVFIFPPSDEQLKSGTASVVCLLNNFYPREAKVQWKVDNALQSGNSQESVTEQDSKDSTYSLSSTLTLSKADYEKHKVYACEVTHQGLSSPVTKSFNRGECGGGGSEVQLVESGGGLVQPGGSLRLSCVASGRPFTKYAWGWFRQAPGKAREFVATITWDGGKTDYADSVKGRFTISKDSAKNSIYLQMNSLRAEDTAVYYCAADRNYCVGHRCYVRPDDYDYWGQGTLVTVSS | – | – | – | 11 |
| CDR-11 (bispecific antibody, no Fc) heavy: EVQLVESGGGLVQPGGSLRLSCAASGFTFSTYAMNWVRQAPGKGLEWVGRIRSKYNNYATYYADSVKGRFTISRDDSKNTLYLQMNSLRAEDTAVYYCVRHGNFGNSYVSWFAYWGQGTLVTVSSASTKGPSVFPLAPSSKSTSGGTAALGCLVKDYFPEPVTVSWNSGALTSGVHTFPAVLQSSGLYSLSSVVTVPSSSLGTQTYICNVNHKPSNTKVDKRVEPKSCGGGGSEVQLVESGGGLVQPGGSLRLSCVASGRPFTKYAWGWFRQAPGKAREFVATITWDGGKTDYADSVKGRFTISKDSAKNSIYLQMNSLRAEDTAVYYCAADRNYCVGHRCYVRPDDYDYWGQGTLVTVSS light: QAVVTQEPSLTVSPGGTVTLTCRSSTGAVTTSNYANWVQQKPGQAPRGLIGGTNKRAPGVPARFSGSLLGGKAALTISGAQPEDEADYYCALWYSNHWVFGGGTKLTVLGTVAAPSVFIFPPSDEQLKSGTASVVCLLNNFYPREAKVQWKVDNALQSGNSQESVTEQDSKDSTYSLSSTLTLSKADYEKHKVYACEVTHQGLSSPVTKSFNRGECGGGGSEVQLVESGGGLVQPGGSLRLSCVASGRPFTKYAWGWFRQAPGKAREFVATITWDGGKTDYADSVKGRFTISKDSAKNSIYLQMNSLRAEDTAVYYCAADRNYCVGHRCYVRPDDYDYWGQGTLVTVSS | – | – | – | 1.2 |
| CDR-3 (bispecific antibody, no Fc; also called Format #3; monovalent Fab-VHH) heavy: EVQLVESGGGSVQPGGSLRLSCAASGFTFSTYAMNWVRQAPGKGLEWVGRIRSKANNYATYYADSVKGRFTISRDDSKNTLYLQMNSLRAEDTATYYCVRHGNFGDSYVSWFAYWGQGTTVTVSSASTKGPSVFPLAPSSKSTSGGTAALGCLVKDYFPEPVTVSWNSGALTSGVHTFPAVLQSSGLYSLSSVVTVPSSSLGTQTYICNVNHKPSNTKVDKRVEPKSCGGGGSEVQLVESGGGLAQAGGSLRVSCVASGRPFTKYAWGWFRQAPGKAREFVATITWDGGKTDYADSVKGRFTISKDSAENSIYLQMNSLKPEDTAVYYCAADRNYCVGHRCYVRPDDYDYWGQGTQVTVSS light: AVVTQEPSLTVSPGGTVTLTCGSSTGAVTTSNYANWVQQKPGKSPRGLIGGTNKRAPGVPARFSGSLLGGKAALTISGAQPEDEADYYCALWYSNHWVFGGGTKLTVLGTVAAPSVFIFPPSDEQLKSGTASVVCLLNNFYPREAKVQWKVDNALQSGNSQESVTEQDSKDSTYSLSSTLTLSKADYEKHKVYACEVTHQGLSSPVTKSFNRGEC | 0.24 | 1.9 | – | – |
| CDR-4 (bispecific antibody, no Fc; also called Format #4; monovalent Fab-VHH HLA-A2/MAGE-A4 x CD3 bispecific) heavy: EVQLVESGGGLAQAGGSLRVSCVASGRPFTKYAWGWFRQAPGKAREFVATITWDGGKTDYADSVKGRFTISKDSAENSIYLQMNSLKPEDTAVYYCAADRNYCVGHRCYVRPDDYDYWGQGTQVTVSSGGGGSEVQLVESGGGSVQPGGSLRLSCAASGFTFSTYAMNWVRQAPGKGLEWVGRIRSKANNYATYYADSVKGRFTISRDDSKNTLYLQMNSLRAEDTATYYCVRHGNFGDSYVSWFAYWGQGTTVTVSSASTKGPSVFPLAPSSKSTSGGTAALGCLVKDYFPEPVTVSWNSGALTSGVHTFPAVLQSSGLYSLSSVVTVPSSSLGTQTYICNVNHKPSNTKVDKRVEPKSC light: AVVTQEPSLTVSPGGTVTLTCGSSTGAVTTSNYANWVQQKPGKSPRGLIGGTNKRAPGVPARFSGSLLGGKAALTISGAQPEDEADYYCALWYSNHWVFGGGTKLTVLGTVAAPSVFIFPPSDEQLKSGTASVVCLLNNFYPREAKVQWKVDNALQSGNSQESVTEQDSKDSTYSLSSTLTLSKADYEKHKVYACEVTHQGLSSPVTKSFNRGEC | 0.5 | 1.3 | – | – |
| CDR-9 (bispecific antibody, no Fc) heavy: EVQLVESGGGLVQPGGSLRLSCAASGFTFSTYAMNWVRQAPGKGLEWVGRIRSKANNYATYYADSVKGRFTISRDDSKNTLYLQMNSLRAEDTAVYYCVRHGNFGDSYVSWFAYWGQGTLVTVSSASTKGPSVFPLAPSSKSTSGGTAALGCLVKDYFPEPVTVSWNSGALTSGVHTFPAVLQSSGLYSLSSVVTVPSSSLGTQTYICNVNHKPSNTKVDKRVEPKSCGGGGSEVQLVESGGGLVQPGGSLRLSCVASGRPFTKYAWGWFRQAPGKAREFVATITWDGGKTDYADSVKGRFTISKDSAKNSIYLQMNSLRAEDTAVYYCAADRNYCVGHRCYVRPDDYDYWGQGTLVTVSS light: QAVVTQEPSLTVSPGGTVTLTCGSSTGAVTTSNYANWVQQKPGKSPRGLIGGTNKRAPGVPARFSGSLLGGKAALTISGAQPEDEADYYCALWYSNHWVFGGGTKLTVLGTVAAPSVFIFPPSDEQLKSGTASVVCLLNNFYPREAKVQWKVDNALQSGNSQESVTEQDSKDSTYSLSSTLTLSKADYEKHKVYACEVTHQGLSSPVTKSFNRGECGGGGSEVQLVESGGGLVQPGGSLRLSCVASGRPFTKYAWGWFRQAPGKAREFVATITWDGGKTDYADSVKGRFTISKDSAKNSIYLQMNSLRAEDTAVYYCAADRNYCVGHRCYVRPDDYDYWGQGTLVTVS | – | – | – | 54 |
